Reference: patent publication US20040052816A1 (Pfizer, published 2004)

Target: the molecule itself
Assay: self-association: retained by a 100,000 MW cutoff membrane in diafiltration

B1: recombinant 20 kDa surface associated protein from S. pneumoniae (Pneumo Protective Protein 1) (other)
chain: MNEVKKMVELKKEAVKDVTSLTKAAPVALAKTKEVLNQAVADLYVAHVALHQVHWYMHGRGFLVWHPKMDEYMEALDGQLDEISERLITLGGSPFSTLTEFLQNSEIEEEAGEYRNVEESLERVLVIYRYLSELFQKGLDVTDEEGDDVTNGIFAGAKTETDKTIWMLAAELGQAPGL
notes: also called r20 kDa; r20kDa
binding result: binds
